Experimental findings from the supplement of paper PMC5998384 are described below.

Series [1] has as its system HeLa Kyoto. Description: solubility in G1/S (NP-40 vs SDS abundance) (log2 ratio); higher = more soluble. The settings on record: cell cycle stage: G1/S.
The test system of series [2] is HeLa Kyoto. The series can be described thus: melting temperature (median over replicates), in situ; higher = more thermally stable.
Series [3] relates to HeLa Kyoto. Description: solubility change mitosis vs G1/S (difference of NP-40 vs SDS log2 ratios) (log2 ratio difference); higher = more soluble in mitosis.
The subject of series [4] is HeLa Kyoto. The series can be described thus: thermal stability score vs G1/S (z-score of summed log2 fold changes over temperatures); higher = more thermally stable than in G1/S.
[5] abbreviates: cell cycle stage: early G1 (4.5 h after nocodazole release).
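For melting temperature (median over replicates), in situ in this document: HeLa Kyoto cells synchronized by double thymidine or nocodazole block, proteins quantified by TMT10plex mass spectrometry, three independent biological replicates.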
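For solubility change mitosis vs G1/S (difference of NP-40 vs SDS log2 ratios) in this document: synchronized HeLa Kyoto cells (double thymidine block for G1/S, nocodazole release for mitosis), protein amounts in NP-40 versus SDS lysates quantified by mass spectrometry, three biological replicates.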
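For solubility in G1/S (NP-40 vs SDS abundance) in this document: HeLa Kyoto cells arrested at G1/S by double thymidine block, proteins quantified by TMT10plex mass spectrometry in mild NP-40 versus SDS extracts, three biological replicates.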
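For thermal stability score vs G1/S (z-score of summed log2 fold changes over temperatures) in this document: synchronized HeLa Kyoto cells, proteins quantified by TMT10plex mass spectrometry, three biological replicates, mitosis taken 0.5 h after nocodazole release, G1/S directly after double thymidine block.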

For “MATSATSPHAPGFPAEGRCGYYVEKKKRFCRMVVAAGKRFCGEHAGAAEEEDARKRILCPLDPKHTVYEDQLAKHLKKCNSREKPKPDFYIQDINAGLRDETEIPEQLVPISSLSEEQLEKLIKKLRKASEGLNSTLKDHIMSHPALHDALNDPKNGDSATKHLKQQASILGNIENLKLLGPRRCFVEFGAGKGKLSHWVDIALKDAEKVHFILVEKVTTRFKVDGKHRKKNSVFERLQIDIQHLCLNKIPVLREEKLPVVGIGKHLCGMATDLALRCLVETYAASFEERNEEPLAKRIKNDKTEKEIYTLAKEGNEKNVPEKWNPVAGIVIALCCHHRCDWRHYVGKEYFRALGLGAVEFHYFQRMSSWATCGMRKTSLETSNSTTKRQDNQNDDSEEHDDGGYRITDDGADCLPGLLSVEEKKKIGHLCKLLIDQGRIQYLQQKGFSPALQYYTDPLVSLENVLLTALPNHSSSPETTA [TRMT13]”, in the series on HeLa Kyoto [1], the “solubility in G1/S (log2)” value worked out at 0.027. This sequence also gave a melting temperature in the series with HeLa Kyoto [2] (cell cycle stage: mitosis) of 50.3 °C. In addition, in the series with HeLa Kyoto [3], the “solubility change mitosis (log2)” value is -0.0657. Moreover, the thermal stability score in the series on HeLa Kyoto [4] (setting [5]) amounted to 1.03; in the series with HeLa Kyoto [4] (cell cycle stage: mitosis) it was 0.684.
In the case of “MATSLGSNTYNRQNWEDADFPILCQTCLGENPYIRMTKEKYGKECKICARPFTVFRWCPGVRMRFKKTEVCQTCSKLKNVCQTCLLDLEYGLPIQVRDAGLSFKDDMPKSDVNKEYYTQNMEREISNSDGTRPVGMLGKATSTSDMLLKLARTTPYYKRNRPHICSFWVKGECKRGEECPYRHEKPTDPDDPLADQNIKDRYYGINDPVADKLLKRASTMPRLDPPEDKTITTLYVGGLGDTITETDLRNHFYQFGEIRTITVVQRQQCAFIQFATRQAAEVAAEKSFNKLIVNGRRLNVKWGRSQAARGKEKEKDGTTDSGIKLEPVPGLPGALPPPPAAEEEASANYFNLPPSGPPAVVNIALPPPPGIAPPPPPGFGPHMFHPMGPPPPFMRAPGPIHYPSQDPQRMGAHAGKHSSP [RBM22]”, in the series on HeLa Kyoto [1], the “solubility in G1/S (log2)” value was -0.116. Further, the melting temperature amounted to 48.6 °C with HeLa Kyoto [2] (cell cycle stage: G1/S) and 49.8 °C in the series with HeLa Kyoto [2] (cell cycle stage: mitosis). Besides, the “solubility change mitosis (log2)” value in the series with HeLa Kyoto [3] came to 0.274. For the same sequence, the thermal stability score with HeLa Kyoto [4] (setting [5]) was -0.922; in the series with HeLa Kyoto [4] (cell cycle stage: mitosis), -0.478.
Take “MATSNLLKNKGSLQFEDKWDFMRPIVLKLLRQESVTKQQWFDLFSDVHAVCLWDDKGPAKIHQALKEDILEFIKQAQARVLSHQDDTALLKAYIVEWRKFFTQCDILPKPFCQLEITLMGKQGSNKKSNVEDSIVRKLMLDTWNESIFSNIKNRLQDSAMKLVHAERLGEAFDSQLVIGVRESYVNLCSNPEDKLQIYRDNFEKAYLDSTERFYRTQAPSYLQQNGVQNYMKYADAKLKEEEKRALRYLETRRECNSVEALMECCVNALVTSFKETILAECQGMIKRNETEKLHLMFSLMDKVPNGIEPMLKDLEEHIISAGLADMVAAAETITTDSEKYVEQLLTLFNRFSKLVKEAFQDDPRFLTARDKAYKAVVNDATIFKLELPLKQKGVGLKTQPESKCPELLANYCDMLLRKTPLSKKLTSEEIEAKLKEVLLVLKYVQNKDVFMRYHKAHLTRRLILDISADSEIEENMVEWLREVGMPADYVNKLARMFQDIKVSEDLNQAFKEMHKNNKLALPADSVNIKILNAGAWSRSSEKVFVSLPTELEDLIPEVEEFYKKNHSGRKLHWHHLMSNGIITFKNEVGQYDLEVTTFQLAVLFAWNQRPREKISFENLKLATELPDAELRRTLWSLVAFPKLKRQVLLYEPQVNSPKDFTEGTLFSVNQEFSLIKNAKVQKRGKINLIGRLQLTTERMREEENEGIVQLRILRTQEAIIQIMKMRKKISNAQLQTELVEILKNMFLPQKKMIKEQIEWLIEHKYIRRDESDINTFIYMA [CUL5]”: the “solubility in G1/S (log2)” value in the series on HeLa Kyoto [1] is -0.152. The melting temperature with HeLa Kyoto [2] (cell cycle stage: G1/S) was determined as 55.6 °C; in the series on HeLa Kyoto [2] (cell cycle stage: mitosis) it was 54 °C. For the same sequence, in the series on HeLa Kyoto [3], the “solubility change mitosis (log2)” value is -0.233. Further, the results for the thermal stability score with HeLa Kyoto [4] (setting [5]) and in the series on HeLa Kyoto [4] (cell cycle stage: mitosis) were -0.282 and -0.5, respectively.
Regarding “MATYTCITCRVAFRDADMQRAHYKTDWHRYNLRRKVASMAPVTAEGFQERVRAQRAVAEEESKGSATYCTVCSKKFASFNAYENHLKSRRHVELEKKAVQAVNRKVEMMNEKNLEKGLGVDSVDKDAMNAAIQQAIKAQPSMSPKKAPPAPAKEARNVVAVGTGGRGTHDRDPSEKPPRLQWFEQQAKKLAKQQEEDSEEEEEDLDGDDWEDIDSDEELECEDTEAMDDVVEQDAEEEEAEEGPPLGAIPITDCLFCSHHSSSLMKNVAHMTKDHSFFIPDIEYLSDIKGLIKYLGEKVGVGKICLWCNEKGKSFYSTEAVQAHMNDKSHCKLFTDGDAALEFADFYDFRSSYPDHKEGEDPNKAEELPSEKNLEYDDETMELILPSGARVGHRSLMRYYKQRFGLSRAVAVAKNRKAVGRVLQQYRALGWTGSTGAALMRERDMQYVQRMKSKWMLKTGMKNNATKQMHFRVQVRF [ZNF622]”, the “solubility in G1/S (log2)” value with HeLa Kyoto [1] was -0.924. Moreover, the values for the melting temperature in the series with HeLa Kyoto [2] (cell cycle stage: G1/S) and with HeLa Kyoto [2] (cell cycle stage: mitosis) were 53.3 °C and 53.7 °C, respectively. For the same sequence, in the series on HeLa Kyoto [3], the “solubility change mitosis (log2)” value was 0.0193. The thermal stability score in the series on HeLa Kyoto [4] (setting [5]) is -2.54; in the series with HeLa Kyoto [4] (cell cycle stage: mitosis), -0.435.
Take “MAVAAAAAAAGPAGAGGGRAQRSGLLEVLVRDRWHKVLVNLSEDALVLSSEEGAAAYNGIGTATNGSFCRGAGAGHPGAGGAQPPDSPAGVRTAFTDLPEQVPESISNQKRGVKVLKQELGGLGISIKGGKENKMPILISKIFKGLAADQTQALYVGDAILSVNGADLRDATHDEAVQALKRAGKEVLLEVKYMREATPYVKKGSPVSEIGWETPPPESPRLGGSTSDPPSSQSFSFHRDRKSIPLKMCYVTRSMALADPENRQLEIHSPDAKHTVILRSKDSATAQAWFSAIHSNVNDLLTRVIAEVREQLGKTGIAGSREIRHLGWLAEKVPGESKKQWKPALVVLTEKDLLIYDSMPRRKEAWFSPVHTYPLLATRLVHSGPGKGSPQAGVDLSFATRTGTRQGIETHLFRAETSRDLSHWTRSIVQGCHNSAELIAEISTACTYKNQECRLTIHYENGFSITTEPQEGAFPKTIIQSPYEKLKMSSDDGIRMLYLDFGGKDGEIQLDLHSCPKPIVFIIHSFLSAKITRLGLVA [SNTB1]”: the “solubility in G1/S (log2)” value in the series on HeLa Kyoto [1] is 0.0289. The melting temperature in the series with HeLa Kyoto [2] (cell cycle stage: G1/S) was determined as 49.9 °C; in the series on HeLa Kyoto [2] (cell cycle stage: mitosis), 50.2 °C. Further, in the series with HeLa Kyoto [3], the “solubility change mitosis (log2)” value was determined as 0.0627. The thermal stability score in the series with HeLa Kyoto [4] (setting [5]) worked out at 0.836; in the series on HeLa Kyoto [4] (cell cycle stage: mitosis), 0.333.
